# In US20250101100A1:
# Tests used:
# [1] = target: human NKG2A-CD94 heterodimer (extracellular domains) (human) (UniProt Q13241); assay: SPR Biacore T200, 37 °C, antibody captured by anti-human Fc on C1 chip, hNKG2A-hCD94 as analyte
# [2] = target: mouse NKG2A on cells (mouse); assay: binding to mNKG2A-expressing CHO cells
# [3] = target: mouse NKG2A on cells (mouse); assay: blockade of Qa-1b tetramer binding to mNKG2A-expressing CHO cells
# [4] = target: cynomolgus monkey NKG2C on CHO cells (cynomolgus monkey); assay: cell binding on CHO-cyno NKG2C cells
# human NKG2A-CD94 heterodimer (extracellular domains) (human), sequence (chain, as listed by the source, chain 1 of 2): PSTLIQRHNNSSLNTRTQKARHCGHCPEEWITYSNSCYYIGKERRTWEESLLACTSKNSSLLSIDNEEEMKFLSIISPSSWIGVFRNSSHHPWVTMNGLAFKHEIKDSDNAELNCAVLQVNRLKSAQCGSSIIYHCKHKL
# human NKG2A-CD94 heterodimer (extracellular domains) (human), sequence (Q13241 32-179, chain 2 of 2): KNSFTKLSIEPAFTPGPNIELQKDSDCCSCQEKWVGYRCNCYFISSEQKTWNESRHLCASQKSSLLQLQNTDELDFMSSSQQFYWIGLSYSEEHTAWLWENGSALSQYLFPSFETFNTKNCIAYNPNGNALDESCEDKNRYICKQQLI
binder,measurement,setting,value
"Z270 (antibody, from another filing, V domains shown) VH: QVQLQQPGAELVRPGASVKLSCKASGYTFTSYWMNWVKQRPEQGLQWIGRIDPYDSETHYSQKFKDKAILTVDKSSSTAYMRLSSLTSEDSAVYYCARGGYDFDVGTLYWFFDVWGAGTTVTVS VL: DIQMTQSPASLSASVGETVTITCRASENIYSYLAWYQQKQGKSPQFLVYNAKTLAEGVPSRFSGSGSGTQFSLKINSLQPEDFGSYYCQHHYGTPRTFGGGTKLEIK",Half-life of Antibody/Analyte Complex,[1],3 to 4 s
same,Kd,[1],25000 pM
same,koff,[1],0.2 s⁻¹
same,kon,[1],8e+06 M⁻¹ s⁻¹
"NKG2A.3 antibody (anti-mNKG2A surrogate, mIgG1-D265A) (antibody, V domains shown) VH: QVQLKQSGAELVKPGASVKISCKTSGYTFTDGYMHWVEQNPGQGLEWIGRIDPDSGYTMYNQKFQDKATLTRDKSSSTVYMELRSLTSEDSAVYYCAINYGEYWYFDFWGQGTQVTVSS VL: DIVMTQSPSSLAVSAGDKVTINCKSSQTLFSGRYNYLAWYQQKTGQAPKLLIYYTSTRHTGVPGRFIGSGSGTDFTLTINNLQTEDLGNYYCQQHYSTPYTFGAGTNLEIRR",EC50,[2],300 pM
same,IC50,[3],400 pM
"NKG2A.9 antibody (antibody, human IgG1, kappa, V domains shown) VH: EVQLVESGGGLVKPGGSLRLSCAASGFTFSSHSMNWVRQAPGKGLEWVSAISSSSSYIYYADSVKGRFTISRDNAKNSLYLQMNSLRAEDTAVYYCAREEWGLPFDYWGQGTLVTVSS VL: AIQLTQSPSSLSASVGDRVTITCRASQGISSALAWYQQKPGKAPKLLIYDASSLKSGVPSRFSGSGSGTDFTLTISSLQPEDFATYYCQQFNSYPLTFGQGTRLEIKR",EC50,[4],800 pM
